The text below walks through data of PMC12079668, “Nanobodies against Cavin1 reveal structural flexibility and regulated interactions of its N-terminal coiled-coil domain” (Journal of Cell Science, 2025).

One may read the Kd as the equilibrium constant for the complex coming apart. What is called stoichiometry N is the number of molecules, sites or subunits per partner or assembly.

Data set [1] concerns the target T1, zebrafish Cavin4a HR1 domain (residues 16-123) (Danio rerio, UniProt A1L260).
T1 construct: zebrafish Cavin4a, HR1 domain, residues 16-123 (codon-optimised construct); also called zC4a-HR1; zC4a HR1; source: E. coli BL21 CodonPlus (DE3), purified (TALON, SEC)
The experiment in a line: ITC; NbA12 at 500 μM or NbB7 at 400 μM titrated into 30 μM (monomer) cavin HR1 domain or His-MBP full-length mC1; GF150 buffer (20 mM HEPES pH 7.4, 150 mM NaCl), 25°C; fitted with a 1:1 binding ratio. Particulars: both partners purified. In general terms: ITC needs no label: the signal is the heat of the interaction.

Data set [2] has as its target T2, zebrafish Cavin4b HR1 domain (residues 12-133) (Danio rerio (Zebrafish) (Brachydanio …, UniProt Q5PQY9)).
T2 construct: zebrafish Cavin4b, HR1 domain, residues 12-133 (codon-optimised construct); also called zC4b-HR1; zC4b HR1; source: E. coli BL21 CodonPlus (DE3), purified (TALON, SEC)
Described as above. Particulars: both partners purified.

Data set [3] concerns the target T3, mouse Cavin1 HR1 H102I/T105I (HT/II) mutant (Mus musculus, UniProt O54724, H102I | T105I).
T3 construct: mouse Cavin1 (PTRF), HR1 domain with H102I and T105I; also called mC1 HR1 HT/II mutant; mC1-HR1(HT/II); source: E. coli BL21 CodonPlus (DE3), purified (glutathione Sepharose, GST removed on-column with thrombin, SEC); not shown: GST, N-terminal, cleaved
The experiment in a line: ITC; 200 μM NbA12 or NbB7 titrated into 6.25 μM trimeric mC1-HR1 HT/II or TS/DD mutant; GF150 buffer, 25°C; single-site fit. The note with it: both partners purified.

In data set [4] the target is T4, mouse Cavin1 HR1 T105D/S106D (TS/DD) mutant (Mus musculus, UniProt O54724, T105D | S106D).
T4 construct: mouse Cavin1 (PTRF), HR1 domain with T105D and S106D (phosphomimetic); also called mC1 HR1 TS/DD mutant; mC1-HR1(TS/DD); source: E. coli BL21 CodonPlus (DE3), purified (glutathione Sepharose, GST removed on-column with thrombin, SEC); not shown: GST, N-terminal, cleaved
Described as above. The note with it: both partners purified.

Data set [5] addresses T5, zebrafish Cavin4b HR1 domain (Danio rerio, UniProt A0A8M1N3J3).
T5 construct: zebrafish Cavin4b, HR1 domain; Codon-optimised construct; also called zC4b-HR1; source: E. coli BL21 CodonPlus (DE3), purified (TALON, SEC)
The experiment in a line: ITC; NbA12 at 500 μM or NbB7 at 400 μM titrated into 30 μM (monomer) HR1 domain of cavins or His-MBP full-length mC1; GF150 buffer (20 mM HEPES pH 7.4, 150 mM NaCl), 25°C; single-site fit. Particulars: both partners purified.

The target of data set [6] is T6, mouse Cavin1 HR1 domain (residues 45–155), His-Ub-tagged (Mus musculus (Mouse)., UniProt O54724).
T6 construct: mouse Cavin1 (PTRF), HR1 coiled-coil domain, residues 45-155; pHUE vector; the methods say the His-Ub proteins were used for ITC; removal of the tag is not described; also called mC1-HR1; wild-type HR1 domain; source: E. coli BL21(DE3)pLysS, purified (TALON, SEC)
The data set is described as above. Particulars: both partners purified.

In data set [7] the target is T7, N-terminal fragment of mouse Cavin1 HR1 domain (residues 45–103) (Mus musculus (Mouse)., UniProt O54724).
T7 construct: mouse Cavin1 (PTRF), N-terminal part of the HR1 domain, residues 45-103; also called mC1-HR1(45–103); shorter fragment of mC1-HR1; source: E. coli BL21(DE3)pLysS, purified (TALON, SEC)
The data set is described as above. Particulars: both partners purified.

The target in data set [8] is T8, full-length mouse Cavin1, His-MBP-tagged (Mus musculus (Mouse)., UniProt O54724).
T8 construct: mouse Cavin1 (PTRF), full length; also called His-MBP full-length mC1; full-length MBP-tagged mC1; source: E. coli BL21(DE3)pLysS, purified (TALON, SEC)
T8 sequence (O54724 whole entry): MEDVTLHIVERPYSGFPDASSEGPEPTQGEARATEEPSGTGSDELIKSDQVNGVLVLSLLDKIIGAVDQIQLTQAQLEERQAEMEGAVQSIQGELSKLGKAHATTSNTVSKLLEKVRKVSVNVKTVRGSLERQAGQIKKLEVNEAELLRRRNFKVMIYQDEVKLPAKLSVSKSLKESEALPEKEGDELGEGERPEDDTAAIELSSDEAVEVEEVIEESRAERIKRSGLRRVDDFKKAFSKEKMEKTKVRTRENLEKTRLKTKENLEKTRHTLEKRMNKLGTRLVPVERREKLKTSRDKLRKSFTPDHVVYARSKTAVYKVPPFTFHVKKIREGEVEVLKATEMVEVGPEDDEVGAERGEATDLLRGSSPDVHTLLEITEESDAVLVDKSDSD
The data set is described as above. The note with it: both partners purified.

Data set [9] concerns the target T9, zebrafish Cavin4a HR1 domain (Danio rerio, UniProt A1L260).
T9 construct: zebrafish Cavin4a, HR1 domain; Codon-optimised construct; also called zC4a-HR1; source: E. coli BL21 CodonPlus (DE3), purified (TALON, SEC)
The data set is described as above. The note with it: both partners purified.

The target in data set [10] is T10, mouse Cavin1 HR1 domain T105D/S106D (TS/DD) mutant (Mus musculus (Mouse)., UniProt O54724, T105D | S106D).
T10 construct: mouse Cavin1 (PTRF), HR1 domain, residues 45-155, T105D/S106D (phosphomimetic); pGEX-4T2, GST removed with thrombin; also called mC1-HR1(TS/DD); source: E. coli BL21 CodonPlus (DE3), purified (glutathione Sepharose, thrombin on-column, SEC); not shown: GST, N-terminal, cleaved
Kind of data set: ITC; 200 μM NbA12 or NbB7 titrated into 6.25 μM trimeric mC1-HR1 HT/II or TS/DD mutant; GF150 buffer, 25°C; single-site fit. Particulars: both partners purified.

Data set [11] concerns the target T11, mouse Cavin1 HR1 domain H102I/T105I (HT/II) mutant (Mus musculus, UniProt O54724, H102I | T105I).
T11 construct: mouse Cavin1 (PTRF), HR1 domain, residues 45-155, H102I/T105I; pGEX-4T2, GST removed with thrombin; also called mC1-HR1(HT/II); source: E. coli BL21 CodonPlus (DE3), purified (glutathione Sepharose, thrombin on-column, SEC); not shown: GST, N-terminal, cleaved
The description is as above. The note with it: both partners purified.

The target in data set [12] is T12, GST-tagged mouse Cavin1 HR1 domain (Mus musculus (Mouse)., UniProt O54724).
T12 construct: mouse Cavin1 (PTRF), HR1 coiled-coil domain, residues 45-155; pGEX-4T2 with thrombin site; GST kept for the pull-down and the liposome pelleting assay; also called GST–mC1-HR1; GST-tagged mC1-HR1; source: E. coli BL21 CodonPlus (DE3), purified (glutathione Sepharose); not shown: GST, N-terminal, kept
The experiment in a line: pull-down; GST–mC1-HR1 (1 nmol) as bait on glutathione Sepharose, His-tagged nanobodies (2 nmol) as prey; 20 mM HEPES, 150 mM NaCl, 1 mM DTT, 0.1% IGEPAL, pH 7.4; 4°C; SDS-PAGE. The note with it: both partners purified.

For data set [13], the target named is T13, mouse Cavin1 HR1 Q76A (residues 45-155) (Mus musculus, UniProt O54724, Q76A).
T13 construct: mouse Cavin1 (PTRF), HR1 domain, residues 45-155, Q76A; also called mC1 HR1 Q76A; source: E. coli BL21(DE3)pLysS, purified (TALON, SEC)
Kind of data set: ITC; NbA12 at 500 μM or NbB7 at 400 μM titrated into 30 μM (monomer) cavin HR1 domain or His-MBP full-length mC1; GF150 buffer (20 mM HEPES pH 7.4, 150 mM NaCl), 25°C; fitted with a 1:1 binding ratio. The note with it: both partners purified.

Data set [14] has as its target T14, endogenous CAV1 (HeLa) (Homo sapiens (Human)., UniProt Q03135).
T14 construct: CAV1 (caveolin 1), endogenous in human HeLa cells; also called caveolin 1; source: endogenous, HeLa lysate
The experiment in a line: co-IP; lysates of HeLa cells expressing NbA12–GFP or NbB7–GFP, GFP-binding nanobody on NHS-activated Sepharose; 0.5% Triton X-100; endogenous Cavin1 and CAV1 detected by western blot. Particulars: partners not purified.

The target in data set [15] is T15, endogenous Cavin1 (HeLa) (Homo sapiens (Human)., UniProt Q6NZI2).
T15 construct: Cavin1 (PTRF), endogenous in human HeLa cells; also called PTRF; source: endogenous, HeLa lysate
T15 sequence (Q6NZI2 whole entry): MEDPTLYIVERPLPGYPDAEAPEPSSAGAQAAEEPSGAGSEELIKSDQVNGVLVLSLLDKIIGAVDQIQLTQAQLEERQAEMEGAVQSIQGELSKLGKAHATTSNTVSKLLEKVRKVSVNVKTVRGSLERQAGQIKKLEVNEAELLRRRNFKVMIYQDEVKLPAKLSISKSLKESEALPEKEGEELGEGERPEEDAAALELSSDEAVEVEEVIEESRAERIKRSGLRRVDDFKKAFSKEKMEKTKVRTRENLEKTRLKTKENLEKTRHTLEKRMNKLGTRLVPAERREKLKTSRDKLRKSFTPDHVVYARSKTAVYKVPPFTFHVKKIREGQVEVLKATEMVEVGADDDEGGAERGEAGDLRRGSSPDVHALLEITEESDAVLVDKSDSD
The data set is described as above. Particulars: partners not purified.

Data set [16] concerns the molecule itself. Kind of data set: crystal structure; complex formed with 1.5-fold molar excess of NbB7 and purified by SEC; hanging-drop vapour diffusion, 20°C; X-ray. A general note: In gel filtration, larger molecules generally elute earlier.

T2 sequence (Q5PQY9 entry or part of it): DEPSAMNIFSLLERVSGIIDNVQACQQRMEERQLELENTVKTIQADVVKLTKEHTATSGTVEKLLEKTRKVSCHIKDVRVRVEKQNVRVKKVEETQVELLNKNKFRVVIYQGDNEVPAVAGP
T1 sequence (A1L260 16-123): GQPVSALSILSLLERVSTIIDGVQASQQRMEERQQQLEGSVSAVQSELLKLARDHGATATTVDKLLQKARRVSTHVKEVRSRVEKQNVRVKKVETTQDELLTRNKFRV
T14 sequence (Q03135 whole entry): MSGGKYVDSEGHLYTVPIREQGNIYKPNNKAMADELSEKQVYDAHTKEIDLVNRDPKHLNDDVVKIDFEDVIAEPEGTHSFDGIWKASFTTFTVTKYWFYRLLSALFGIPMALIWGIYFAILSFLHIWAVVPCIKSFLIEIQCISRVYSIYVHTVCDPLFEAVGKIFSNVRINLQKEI
T9 sequence (A1L260 whole entry, looked up, the tested form may be a part): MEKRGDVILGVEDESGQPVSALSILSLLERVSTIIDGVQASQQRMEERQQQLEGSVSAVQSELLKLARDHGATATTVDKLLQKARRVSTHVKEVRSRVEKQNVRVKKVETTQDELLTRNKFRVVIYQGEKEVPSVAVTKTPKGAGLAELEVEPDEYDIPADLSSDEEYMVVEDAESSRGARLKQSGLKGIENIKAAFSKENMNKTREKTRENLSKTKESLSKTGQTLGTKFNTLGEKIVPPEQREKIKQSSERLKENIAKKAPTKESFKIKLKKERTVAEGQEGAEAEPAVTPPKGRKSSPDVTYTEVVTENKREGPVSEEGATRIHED

B1: Nanobody NbA12 (VHH)
VHH: QVQLQESGGGLVQAGGSLRLSCAASGFTFDDYAIGWFRQAPGKEREGVSCITSSDGSTYYADSVKGRFTISSDNAKNTVYLQMNSLKPEDTAVYYCAAESWPPLCHYSGMDYWGKGTQVTVSS
notes: Selected by phage display from an alpaca immunised with mC1-HR1; source: E. coli WK6, periplasmic expression, purified (TALON, SEC)
In the case of B1, the binding result in data set [1] and in data set [2] was “no binding” throughout. For the same molecule, the Kd was 3.02 ± 1.94 µM in data set [3] and 2.17 ± 0.02 µM in data set [4].

B2: nanobody NbA12 (VHH)
VHH: B1 VHH
notes: alpaca nanobody raised against mC1-HR1; Cloned in pMES4 with a C-terminal 6x histidine tag; source: E. coli WK6, periplasmic expression, purified (TALON, SEC); not shown: His6, C-terminal, kept
In the case of B2, the binding result in data set [5] is listed as “no binding”; in data set [6], “binds”; in [7], “binds”; in [8], “binds”; in data set [9], “no binding”; in data set [12] it was “binds”. Moreover, the Kd stood at 2 µM in [10] and 3 µM in [11].

B3: Nanobody NbB7 (VHH)
VHH: QVQLQESGGGLVQAGGSLRLSCAVSGIRVNVNAMYWYRQAPGKQRELVAIITTFGSTNYADSAKGRFTISRDNTKNTVYLQMDNLKPEDTAVYYCNAPQFTDRYWGQGTQVTVSS
notes: the same chain is in PDB 9EGN, 9EG6 and 9EIU; source: E. coli WK6, periplasmic expression, purified (TALON, SEC)
With B3, the binding result in [2] is recorded as “no binding”. Further, the Kd in [13] worked out at 2.89 ± 1.01 µM; in [3] it was 0.14 ± 0.04 µM; in data set [4] it was 0.067 ± 0.02 µM.

B4: nanobody NbB7 (VHH)
VHH: B3 VHH
notes: also in the deposited structures PDB 9EGN, 9EG6, 9EIU; alpaca nanobody raised against mC1-HR1; Cloned in pMES4 with a C-terminal 6x histidine tag; source: E. coli WK6, periplasmic expression, purified (TALON, SEC); not shown: His6, C-terminal, kept
With B4, in data set [5], the binding result is “no binding”. In addition, the Kd in data set [6] stood at 0.52 µM; in data set [10], 0.0667 µM; in data set [11], 0.142 µM.

B5: C-terminal GFP-tagged NbB7 (VHH)
VHH: B3 VHH
notes: as the VHH of m1; pEGFP-N1; also called NbB7–GFP; source: HeLa, transiently transfected, in lysate; not shown: GFP, C-terminal, kept
Take B5: the binding result in data set [14] and in data set [15] was “binds” throughout.

B6: mouse Cavin1 HR1 domain (residues 45–155) as crystallised with NbB7 (domain or fragment, UniProt O54724 45-155, looked up)
chain: LIKSDQVNGVLVLSLLDKIIGAVDQIQLTQAQLEERQAEMEGAVQSIQGELSKLGKAHATTSNTVSKLLEKVRKVSVNVKTVRGSLERQAGQIKKLEVNEAELLRRRNFKV
notes: mouse Cavin1 (PTRF), HR1 coiled-coil domain, residues 45-155 in the crystallised construct; residues 56-98 ordered; also called mC1-HR1; source: E. coli, purified (SEC)
For the molecule B6, the “stoichiometry N” value in data set [16] is 3.
